T1: H2B-mCherry-127D01 (127D01 tag, identical to a stretch of …, UniProt P25025)
T1 chain: SFEDFWKGED

T2: VHH05-REPTOR-127D01 (VHH05 and 127D01 tags (human UBE2J1 and …, UniProt Q9Y385;P25025))
T2 chain 1: QADQEAKELARQIS
T2 chain 2: SFEDFWKGED

T3: H2B-mCherry-VHH05 (VHH05 tag, identical to a stretch of …, UniProt Q9Y385)
T3 chain: QADQEAKELARQIS

B1: Nb127D01-HA-His (VHH)
VHH: EVQLVESGGGLVQAGESLRLSCAASGSTFDFKVMGWYRQPPGKQREGVAAIRLSGNMHYAESVKGRFAISKANAKNTVYLQMNSLRPEDTAVYYCKVNIRGQDYWGQGTQVTVSS
B2: Nb127D01-ALFA-His (VHH)
VHH: B1 VHH
B3: NbVHH05-HA-His (VHH)
VHH: QVQLQESGGGLVQPGGSLRLSCAASGFVFENSAMAWYRQAPGKERELIAVIGTTFIKLAESVKGRFTISRDNAKSTVYLQMNNLKPEDTAVYYCSKSGAYWGQGTQVTVSS

Legend:
[1] = target: T1, H2B-mCherry-127D01; experiment: far-Western, overlay or dot blot
[2] = target: T2, VHH05-REPTOR-127D01; experiment: immunostaining of cells or tissue
[3] = target: T3, H2B-mCherry-VHH05; experiment: far-Western, overlay or dot blot

Binder	binding result [1]	binding result [2]	binding result [3]
B1	binds		
B2		binds	
B3		binds	binds

— paper PMC9811555 (Current protocols, 2022)
